Laboratory results published in PMC12316266, “Biochemical analysis of human eIF4E-DCP2 interaction: Implications for the relationship between translation initiation and decapping”.

Assays:
[1] = target: Dcp2 E147Q,E148Q (Homo sapiens, UniProt Q8IU60 1-420, E147Q;E148Q); test: MST; no Mg2+ (implied); MST: 100 mM NaCl, 50 mM Tris-Cl pH 7.9, 1 mM DTT, 100 ug/ml BSA, 37 C (10 mM MgCl2 only when stated), 4 nM RNA; EMSA: same buffer plus 5% glycerol, no Mg2+, 24; details: protein: recombinant; tags: His6-protein G-TEV tag, removed by TEV; label: 3' Cy5; single strand
[2] = target: T1, Dcp2 (Homo sapiens, UniProt Q8IU60 1-420); test: MST; no Mg2+; Hill coefficient 1.56 ± 0.49; MST: 100 mM NaCl, 50 mM Tris-Cl pH 7.9, 1 mM DTT, 100 ug/ml BSA, 37 C (10 mM MgCl2 only when stated), 4 nM RNA; EMSA: same buffer plus 5% glycerol, no Mg2+, 24; details: protein: recombinant; tags: His6-protein G-TEV tag, removed by TEV; label: 3' Cy5; single strand
[3] = target: T2, eIF4E (Homo sapiens, UniProt P06730 1-217); test: EMSA; 10 mM MgOAc; 2.5 uM eIF4E; Cy5 label implied; MST: 100 mM NaCl, 50 mM Tris-Cl pH 7.9, 1 mM DTT, 100 ug/ml BSA, 37 C (10 mM MgCl2 only when stated), 4 nM RNA; EMSA: same buffer plus 5% glycerol, no Mg2+, 24; details: protein: recombinant; tags: His6-protein G-TEV tag, removed by TEV; label: 3' Cy5; single strand
[4] = target: T1, Dcp2; test: MST; no Mg2+; RNA pre-incubated with 80 nM eIF4E; Hill coefficient 1.99 ± 0.83; MST: 100 mM NaCl, 50 mM Tris-Cl pH 7.9, 1 mM DTT, 100 ug/ml BSA, 37 C (10 mM MgCl2 only when stated), 4 nM RNA; EMSA: same buffer plus 5% glycerol, no Mg2+, 24; details: protein: recombinant; tags: His6-protein G-TEV tag, removed by TEV; label: 3' Cy5; single strand
[5] = target: T2, eIF4E; test: EMSA; no Mg2+; 625 nM eIF4E; MST: 100 mM NaCl, 50 mM Tris-Cl pH 7.9, 1 mM DTT, 100 ug/ml BSA, 37 C (10 mM MgCl2 only when stated), 4 nM RNA; EMSA: same buffer plus 5% glycerol, no Mg2+, 24; details: protein: recombinant; tags: His6-protein G-TEV tag, removed by TEV; single strand
[6] = target: T1, Dcp2; test: MST; no Mg2+; Hill coefficient 1.89 ± 0.78; MST: 100 mM NaCl, 50 mM Tris-Cl pH 7.9, 1 mM DTT, 100 ug/ml BSA, 37 C (10 mM MgCl2 only when stated), 4 nM RNA; EMSA: same buffer plus 5% glycerol, no Mg2+, 24; details: protein: recombinant; tags: His6-protein G-TEV tag, removed by TEV; label: 3' Cy5; single strand
[7] = target: T2, eIF4E; test: EMSA; 10 mM MgOAc; 2.5 uM eIF4E; MST: 100 mM NaCl, 50 mM Tris-Cl pH 7.9, 1 mM DTT, 100 ug/ml BSA, 37 C (10 mM MgCl2 only when stated), 4 nM RNA; EMSA: same buffer plus 5% glycerol, no Mg2+, 24; details: protein: recombinant; tags: His6-protein G-TEV tag, removed by TEV; label: 3' Cy5 (implied); single strand
[8] = target: T1, Dcp2; test: MST; no Mg2+; Hill coefficient 1.22 ± 0.39; MST: 100 mM NaCl, 50 mM Tris-Cl pH 7.9, 1 mM DTT, 100 ug/ml BSA, 37 C (10 mM MgCl2 only when stated), 4 nM RNA; EMSA: same buffer plus 5% glycerol, no Mg2+, 24; details: protein: recombinant; tags: His6-protein G-TEV tag, removed by TEV; label: 3' Cy5; single strand

T2 sequence (P06730 whole entry): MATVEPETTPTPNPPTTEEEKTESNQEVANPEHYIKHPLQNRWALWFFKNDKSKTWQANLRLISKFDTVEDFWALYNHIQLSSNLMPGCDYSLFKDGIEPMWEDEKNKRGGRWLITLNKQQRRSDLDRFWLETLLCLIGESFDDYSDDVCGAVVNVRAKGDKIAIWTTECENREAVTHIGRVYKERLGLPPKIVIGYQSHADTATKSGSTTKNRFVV

AGGAAAUAAGAGAGAAAAGAAGAGUAAGAAGAAAUAUAAGAGC (ssRNA, 5' m7GpppAm cap (2'-O-methyl on first A)) [m7G-capped 43-mer RNA, 3' Cy5]
binding result [1]: no binding | apparent K (half saturation) [2]: 157 ± 26 nM | binding result [3]: binds | apparent K (half saturation) [4]: 72 ± 20 nM

AGGAAAUAAGAGAGAAAAGAAGAGUAAGAAGAAAUAUAAGAGC (ssRNA, 5' m7GpppAm cap (2'-O-methyl on first A)) [m7G-capped 43-mer RNA, 3' unlabeled]
binding result [5]: binds

AGGAAAUAAGAGAGAAAAGAAGAGUAAGAAGAAAUAUAAGAGC (ssRNA, 5' monophosphate) [5' monophosphate 43-mer RNA]
apparent K (half saturation) [6]: 96 ± 16 nM

AGGAAAUAAGAGAGAAAAGAAGAGUAAGAAGAAAUAUAAGAGC (ssRNA, 5' ApppAm cap (2'-O-methyl on first A)) [A-capped 43-mer RNA]
binding result [7]: no binding

AGGAAAUAAGAGAGAAAAGAAGAGUAAGAAGAAAUAUAAGAGC (ssRNA, 5' triphosphate) [5' triphosphate 43-mer RNA]
apparent K (half saturation) [8]: 151 ± 29 nM | binding result [3]: no binding
